According to paper PMC2668526 (Bioorganic & medicinal chemistry, 2008):

Assays:
Assay in all cases: purified protein, by the assay type
Conditions in all cases: other: O2 consumption, 5.0 mM ascorbate, pH 6.0, 37 °C
[1] = substrate: O=C(O)CNC(=O)c1cccnc1
[2] = substrate: O=C(O)CNC(=O)c1ccc([N+](=O)[O-])cc1
[3] = substrate: O=C(O)CNC(=O)Nc1ccccc1
[4] = substrate: O=C(O)CNC(=O)c1ccc(C(F)(F)F)cc1
[5] = substrate: O=C(O)CNC(=O)CCCCCCCc1ccccc1
[6] = substrate: O=C(O)CNC(=O)c1ccccc1
[7] = substrate: O=C(O)CNC(=O)c1ccco1
[8] = substrate: O=C(O)CNC(=S)CCc1ccccc1
[9] = substrate: CC(Cc1ccccc1)C(=O)NCC(=O)O
[10] = substrate: O=C(O)CNC(=O)CCc1ccccc1
[11] = substrate: O=C(O)CNC(=O)c1c(F)cccc1F
[12] = substrate: CC(=O)NCC(=O)NCC(=O)O
[13] = substrate: O=C(O)CNC(=O)c1ccc(O)cc1
[14] = substrate: O=C(O)CNC(=O)/C=C/c1ccccc1
[15] = substrate: CC(C)CCC(=O)NCC(=O)O
[16] = substrate: O=C(O)CNC(=O)CCCc1ccccc1
[17] = substrate: Nc1ccccc1C(=O)NCC(=O)O
[18] = substrate: CCCc1ccc(C(=O)NCC(=O)O)cc1
[19] = substrate: Cc1ccc(C(=O)NCC(=O)O)cc1
[20] = substrate: O=C(O)CNC(=O)CNC(=O)CNC(=O)c1ccccc1

B1: rat PAM (Rattus norvegicus) (protein)
chain: FKETTRSFSNECLGTIGPVTPLDASDFALDIRMPGVTPKESDTYFCMSMRLPVDEEAFVIDFKPRASMDTVHHMLLFGCNMPSSTGSYWFCDEGTCTDKANILYAWARNAPPTRLPKGVGFRVGGETGSKYFVLQVHYGDISAFRDNHKDCSGVSVHLTRVPQPLIAGMYLMMSVDTVIPPGEKVVNADISCQYKMYPMHVFAYRVHTHHLGKVVSGYRVRNGQWTLIGRQNPQLPQAFYPVEHPVDVTFGDILAARCVFTGEGRTEATHIGGTSSDEMCNLYIMYYMEAKYALSFMTCTKNVAPDMFRTIPAEANIPIPVKPDMVMMHGHHKEAENKEKSALMQQPKQGEEEVLEQDFHVEEELDWPGVYLLPGQVSGVALDSKNNLVIFHRGDHVWDGNSFDSKFVYQQRGLGPIEEDTILVIDPNNAEILQSSGKNLFYLPHGLSIDTDGNYWVTDVALHQVFKLDPHSKEGPLLILGRSMQPGSDQNHFCQPTDVAVEPSTGAVFVSDGYCNSRIVQFSPSGKFVTQWGEESSGSSPRPGQFSVPHSLALVPHLDQLCVADRENGRIQCFKTDTKEFVREIKHASFGRNVFAISYIPGFLFAVNGKPYFGDQEPVQGFVMNFSSGEIIDVFKPVRKHFDMPHDIVASEDGTVYIGDAHTNTVWKFTLTEKMEHRSV
- Km [1]: 1900 ± 100 µM
- kcat [1]: 8 ± 0.2 s⁻¹
- kcat/Km [1]: 4200 ± 200 M⁻¹ s⁻¹
- Km [2]: 470 ± 10 µM
- kcat [2]: 4.2 ± 0.04 s⁻¹
- kcat/Km [2]: 8900 ± 200 M⁻¹ s⁻¹
- Km [3]: 0.36 ± 0.08 0.45 ± 0.05 mM
- kcat [3]: 9.7 ± 0.9 s⁻¹
- kcat/Km [3]: 27000 ± 4000 M⁻¹ s⁻¹
- Km [4]: 770 ± 100 µM
- kcat [4]: 2.8 ± 0.1 s⁻¹
- kcat/Km [4]: 3600 ± 500 M⁻¹ s⁻¹
- Km [5]: 0.10 ± 0.009 0.064 ± 0.006 mM
- kcat [5]: 8 ± 0.3 s⁻¹
- kcat/Km [5]: 76000 ± 4000 M⁻¹ s⁻¹
- Km [6]: 1300 ± 40 µM
- kcat [6]: 8.2 ± 0.08 s⁻¹
- kcat/Km [6]: 6200 ± 100 M⁻¹ s⁻¹
- Km [7]: 2700 ± 100 µM
- kcat [7]: 7.5 ± 0.07 s⁻¹
- kcat/Km [7]: 2800 ± 100 M⁻¹ s⁻¹
- Km [8]: 0.038 ± 0.02 0.023 ± 0.002 mM
- kcat [8]: 1.6 ± 0.2 s⁻¹
- kcat/Km [8]: 42000 ± 14000 M⁻¹ s⁻¹
- Km [9]: 4100 ± 300 µM
- kcat [9]: 18 ± 0.9 s⁻¹
- kcat/Km [9]: 4300 ± 100 M⁻¹ s⁻¹
- Km [10]: 0.94 ± 0.1 0.55 ± 0.039 mM
- kcat [10]: 9.9 ± 0.4 s⁻¹
- kcat/Km [10]: 11000 ± 600 M⁻¹ s⁻¹
- Km [11]: 19000 ± 4000 µM
- kcat [11]: 4.3 ± 0.6 s⁻¹
- kcat/Km [11]: 230 ± 20 M⁻¹ s⁻¹
- kcat [12]: 8.9 ± 0.2 s⁻¹
- kcat/Km [12]: 5900 ± 200 M⁻¹ s⁻¹
- Km [13]: 1700 ± 100 µM
- kcat [13]: 5.8 ± 0.1 s⁻¹
- kcat/Km [13]: 3500 ± 200 M⁻¹ s⁻¹
- Km [14]: 230 ± 20 µM
- kcat [14]: 8.4 ± 0.3 s⁻¹
- kcat/Km [14]: 36000 ± 3000 M⁻¹ s⁻¹
- Km [15]: 280 ± 30 µM
- kcat [15]: 6.6 ± 0.3 s⁻¹
- kcat/Km [15]: 23000 ± 2000 M⁻¹ s⁻¹
- Km [16]: 160 ± 20 µM
- kcat [16]: 11 ± 0.4 s⁻¹
- kcat/Km [16]: 70000 ± 7000 M⁻¹ s⁻¹
- Km [17]: 1400 ± 100 µM
- kcat [17]: 4.2 ± 0.1 s⁻¹
- kcat/Km [17]: 2900 ± 100 M⁻¹ s⁻¹
- Km [18]: 1200 ± 200 µM
- kcat [18]: 5.1 ± 0.4 s⁻¹
- kcat/Km [18]: 4200 ± 600 M⁻¹ s⁻¹
- Km [19]: 1800 ± 200 µM
- kcat [19]: 5.7 ± 0.3 s⁻¹
- kcat/Km [19]: 3200 ± 200 M⁻¹ s⁻¹
- Km [20]: 310 ± 60 µM
- kcat [20]: 8.8 ± 1.3 s⁻¹
- kcat/Km [20]: 29000 ± 2000 M⁻¹ s⁻¹
